This note sets out measurements from US20040213780A1 (GENERAL HOSPITAL, published 2004).

The experiment deals with T1, mutant full-length huntingtin with 75 glutamines (HttQ75) (UniProt P42858 1-3142).
T1 construct: domain: full-length; In the yeast two-hybrid assay expressed as prey fusion from vector pJG4-5 (hemagglutinin tag); also called mutant huntingtin
As to the kind of experiment: yeast two-hybrid, huntingtin prey against TAFII130 bait. The procedure: All the constructs were verified by DNA sequencing for correct reading frame and orientation. All assays were performed in triplicates and protein expression verified by Western blotting using standard procedures. The ability of the LexA fusion to bind operator was confirmed by a repression assay. The two-hybrid screen assays were performed as described (D. Krainc et al., J. Biol. Chem. 273:26218, 1998).
Because NH₂-terminal fragments of mutant huntingtin can effectively induce cell death in both in vivo and in vitro models (L. Mangiarini, et al., Cell 87:493, 1996; J. K. Copper, et al., Hum. Mol. Genet. 7:783, 1998; D. Martindale, et al., Nature Genet. 18:150, 1998; S. H. Li and X. Y. Li, Hum. Mol. Genet. 7:777, 1998), we examined the interactions of Sp1 and TAFII130 with the 480-amino acid NH₂-terminal fragment of huntingtin. […] FIG. 1 illustrates that Huntingtin interacted with Sp1 and TAFII130 in vitro and in human HD brain tissue. FIG. 1A illustrates results of yeast two-hybrid experiments, as described above herein, performed with full-length (HttQ17 and HttQ75) or truncated huntingtin constructs (Htt480Q17 and Htt480Q68) as prey against bait plasmids containing full-length Sp1 or Sp1 lacking the DNA binding domain (Sp1AB, amino acids 83 through 621).

T1 sequence (P42858 other isoform, or with tags, fused parts or gaps mutant limits assumed): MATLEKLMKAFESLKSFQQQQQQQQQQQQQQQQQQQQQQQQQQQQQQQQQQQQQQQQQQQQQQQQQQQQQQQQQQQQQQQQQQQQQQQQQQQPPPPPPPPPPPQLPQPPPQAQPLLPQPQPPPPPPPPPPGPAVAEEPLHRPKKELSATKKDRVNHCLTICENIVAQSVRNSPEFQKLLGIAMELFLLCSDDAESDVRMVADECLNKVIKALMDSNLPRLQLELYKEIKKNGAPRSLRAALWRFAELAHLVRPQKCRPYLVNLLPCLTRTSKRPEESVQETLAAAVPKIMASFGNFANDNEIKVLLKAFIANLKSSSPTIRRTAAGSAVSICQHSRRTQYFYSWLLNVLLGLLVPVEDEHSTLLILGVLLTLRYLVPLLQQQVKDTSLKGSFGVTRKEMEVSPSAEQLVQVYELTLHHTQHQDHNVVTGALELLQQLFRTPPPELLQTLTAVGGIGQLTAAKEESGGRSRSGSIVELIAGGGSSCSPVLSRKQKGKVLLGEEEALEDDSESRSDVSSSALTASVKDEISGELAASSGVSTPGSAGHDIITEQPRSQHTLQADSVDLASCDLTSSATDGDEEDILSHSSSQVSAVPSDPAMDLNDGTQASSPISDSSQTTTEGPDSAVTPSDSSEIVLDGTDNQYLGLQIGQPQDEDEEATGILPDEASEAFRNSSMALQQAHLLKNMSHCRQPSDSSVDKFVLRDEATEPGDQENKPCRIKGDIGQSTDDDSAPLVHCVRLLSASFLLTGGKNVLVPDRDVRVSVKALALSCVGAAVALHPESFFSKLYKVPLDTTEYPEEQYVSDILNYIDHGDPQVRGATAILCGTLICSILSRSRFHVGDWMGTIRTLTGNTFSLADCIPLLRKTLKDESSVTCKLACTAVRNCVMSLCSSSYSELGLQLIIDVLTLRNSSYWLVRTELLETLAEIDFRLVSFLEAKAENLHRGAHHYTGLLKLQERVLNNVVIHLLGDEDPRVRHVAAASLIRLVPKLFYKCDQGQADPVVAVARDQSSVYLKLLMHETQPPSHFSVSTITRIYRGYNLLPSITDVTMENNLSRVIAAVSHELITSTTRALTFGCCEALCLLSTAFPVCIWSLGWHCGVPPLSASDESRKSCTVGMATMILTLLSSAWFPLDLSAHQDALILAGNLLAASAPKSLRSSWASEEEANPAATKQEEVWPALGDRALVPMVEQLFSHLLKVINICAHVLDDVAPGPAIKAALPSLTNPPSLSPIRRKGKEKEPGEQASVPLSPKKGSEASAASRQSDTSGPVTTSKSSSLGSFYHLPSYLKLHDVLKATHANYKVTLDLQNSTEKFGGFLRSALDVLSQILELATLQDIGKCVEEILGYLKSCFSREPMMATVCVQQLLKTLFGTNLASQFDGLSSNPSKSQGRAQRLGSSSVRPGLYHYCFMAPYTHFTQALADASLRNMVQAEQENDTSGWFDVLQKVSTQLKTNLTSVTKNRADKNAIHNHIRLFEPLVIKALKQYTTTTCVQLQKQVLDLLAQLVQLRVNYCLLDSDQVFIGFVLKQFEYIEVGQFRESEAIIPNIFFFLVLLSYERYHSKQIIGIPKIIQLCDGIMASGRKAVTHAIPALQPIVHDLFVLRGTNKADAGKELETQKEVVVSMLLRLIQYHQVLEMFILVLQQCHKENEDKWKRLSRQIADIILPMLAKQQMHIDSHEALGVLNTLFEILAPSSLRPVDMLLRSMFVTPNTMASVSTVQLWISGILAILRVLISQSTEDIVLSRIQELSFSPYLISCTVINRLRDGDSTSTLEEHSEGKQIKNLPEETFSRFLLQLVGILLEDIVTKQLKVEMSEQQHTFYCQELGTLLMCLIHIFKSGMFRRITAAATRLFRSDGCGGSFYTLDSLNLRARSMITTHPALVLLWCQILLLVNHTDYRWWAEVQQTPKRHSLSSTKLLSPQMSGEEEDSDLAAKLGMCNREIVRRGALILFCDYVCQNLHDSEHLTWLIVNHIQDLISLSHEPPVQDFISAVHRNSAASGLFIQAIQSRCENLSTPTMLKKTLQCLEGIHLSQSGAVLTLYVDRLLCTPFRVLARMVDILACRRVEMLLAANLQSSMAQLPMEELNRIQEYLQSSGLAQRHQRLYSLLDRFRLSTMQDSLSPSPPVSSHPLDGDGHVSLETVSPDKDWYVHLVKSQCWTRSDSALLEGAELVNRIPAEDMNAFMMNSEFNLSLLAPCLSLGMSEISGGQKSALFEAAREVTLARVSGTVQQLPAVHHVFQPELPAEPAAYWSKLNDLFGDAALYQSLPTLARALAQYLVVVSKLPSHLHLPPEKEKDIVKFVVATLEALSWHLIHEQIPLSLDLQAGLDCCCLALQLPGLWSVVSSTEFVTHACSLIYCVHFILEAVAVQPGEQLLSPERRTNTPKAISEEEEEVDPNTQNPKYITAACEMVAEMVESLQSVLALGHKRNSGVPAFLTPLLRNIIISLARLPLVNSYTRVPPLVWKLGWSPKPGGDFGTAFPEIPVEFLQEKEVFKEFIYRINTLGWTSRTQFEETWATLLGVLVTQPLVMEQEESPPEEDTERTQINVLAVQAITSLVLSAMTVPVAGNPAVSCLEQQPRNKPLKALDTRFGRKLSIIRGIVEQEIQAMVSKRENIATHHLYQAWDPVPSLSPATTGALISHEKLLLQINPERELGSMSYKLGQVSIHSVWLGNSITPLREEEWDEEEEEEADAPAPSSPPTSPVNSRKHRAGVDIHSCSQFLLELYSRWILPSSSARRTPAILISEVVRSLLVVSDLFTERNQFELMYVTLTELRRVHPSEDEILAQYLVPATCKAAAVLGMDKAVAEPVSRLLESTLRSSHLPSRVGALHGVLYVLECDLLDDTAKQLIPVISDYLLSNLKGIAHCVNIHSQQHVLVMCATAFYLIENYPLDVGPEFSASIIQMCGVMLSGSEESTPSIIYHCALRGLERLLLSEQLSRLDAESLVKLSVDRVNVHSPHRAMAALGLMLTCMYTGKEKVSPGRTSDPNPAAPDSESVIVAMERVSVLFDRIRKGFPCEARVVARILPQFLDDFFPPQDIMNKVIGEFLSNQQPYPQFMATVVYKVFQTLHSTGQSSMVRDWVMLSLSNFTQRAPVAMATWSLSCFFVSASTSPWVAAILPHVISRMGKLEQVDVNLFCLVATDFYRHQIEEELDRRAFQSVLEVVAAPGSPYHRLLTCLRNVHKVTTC

B1: TAFII130 (coactivator), full length (other, UniProt O00268 139-1085, looked up)
chain: PVPAAAAVAAGPEPAPAGPAKPAGPAALAARAGPGPGPGPGPGPGPGPGKPAGPGAAQTLNGSAALLNSHHAAAPAVSLVNNGPAALLPLPKPAAPGTVIQTPPFVGAAAPPAPAAPSPPAAPAPAAPAAAPPPPPPAPATLARPPGHPAGPPTAAPAVPPPAAAQNGGSAGAAPAPAPAAGGPAGVSGQPGPGAAAAAPAPGVKAESPKRVVQAAPPAAQTLAASGPASTAASMVIGPTMQGALPSPAAVPPPAPGTPTGLPKGAAGAVTQSLSRTPTATTSGIRATLTPTVLAPRLPQPPQNPTNIQNFQLPPGMVLVRSENGQLLMIPQQALAQMQAQAHAQPQTTMAPRPATPTSAPPVQISTVQAPGTPIIARQVTPTTIIKQVSQAQTTVQPSATLQRSPGVQPQLVLGGAAQTASLGTATAVQTGTPQRTVPGATTTSSAATETMENVKKCKNFLSTLIKLASSGKQSTETAANVKELVQNLLDGKIEAEDFTSRLYRELNSSPQPYLVPFLKRSLPALRQLTPDSAAFIQQSQQQPPPPTSQATTALTAVVLSSSVQRTAGKTAATVTSALQPPVLSLTQPTQVGVGKQGQPTPLVIQQPPKPGALIRPPQVTLTQTPMVALRQPHNRIMLTTPQQIQLNPLQPVPVVKPAVLPGTKALSAVSAQAAAAQKNKLKEPGGGSFRDDDDINDVASMAGVNLSEESARILATNSELVGTLTRSCKDETFLLQAPLQRRILEIGKKHGITELHPDVVSYVSHATQQRLQNLVEKISETAQQKNFSYKDDDRYEQASDVRAQLKFFEQLDQIEKQRKDEQEREILMRAAKSRSRQEDPEQLRLKQKAKEMQQQELAQMRQRDANLTALAAIGPRKKRKVDCPGPGSGAEGSGPGSVVPGSSGVGTPRQFTRQRITRVNLRDLIFCLENERETSHSLLLYKAFLK
notes: domain: full-length; in striatal neurons overexpressed
Consider B1, for which the binding result was “binds”.
